Patent US20200199204A1

Assays:
Assay in all cases: cell-based or functional assay
[1] = target: HIV-1 Env of DU156.12 (HIV-1)
[2] = target: HIV-1 Env of CAP256.SU (HIV-1)
[3] = target: HIV-1 Env of ZM135.10a (HIV-1)
[4] = target: HIV-1 Env of CAP244.D3 (HIV-1)
[5] = target: HIV-1 Env of CM244.ec1 (HIV-1)
[6] = target: HIV-1 Env of Q461.e2 (HIV-1)
[7] = target: HIV-1 Env of 191821.E6.1 (HIV-1)
[8] = target: HIV-1 Env of ZM53.12 (HIV-1)
[9] = target: HIV-1 Env of DU172.17 (HIV-1)
[10] = target: HIV-1 Env of Q23.17 (HIV-1)
[11] = target: HIV-1 Env of RHPA.7 (HIV-1)
[12] = target: HIV-1 Env of MB201 (HIV-1)
[13] = target: HIV-1 Env of Q842.d12 (HIV-1)
[14] = target: HIV-1 Env of REJO.67 (HIV-1)
[15] = target: HIV-1 Env of ZM214.15 (HIV-1)
[16] = target: HIV-1 Env of 96ZM651.02 (HIV-1)
[17] = target: HIV-1 Env of AC10.29 (HIV-1)
[18] = target: HIV-1 Env of CAAN.A2 (HIV-1)
[19] = target: HIV-1 Env of SC422.8 (HIV-1)
[20] = target: HIV-1 Env of QH0692.42 (HIV-1)
[21] = target: HIV-1 Env of WITO.33 (HIV-1)
[22] = target: HIV-1 Env of DU422.01 (HIV-1)
[23] = target: HIV-1 Env of RW020.2 (HIV-1)
[24] = target: HIV-1 Env of ZM233.6 (HIV-1)
[25] = target: HIV-1 Env of 0260.v5.c36 (HIV-1)
[26] = target: HIV-1 Env of 3016.V5.c36 (HIV-1)
[27] = target: HIV-1 Env of PVO.04 (HIV-1)
[28] = target: HIV-1 Env of TRO.11 (HIV-1)
[29] = target: HIV-1 Env of MB539.2B7 (HIV-1)
[30] = target: HIV-1 Env of UG037.8 (HIV-1)
[31] = target: HIV-1 Env of CAP45.G3 (HIV-1)
[32] = target: HIV-1 Env of BG505.w6m (HIV-1)
[33] = target: HIV-1 Env of Q259.d2.17 (HIV-1)
[34] = target: HIV-1 Env of 6405.v4.c34 (HIV-1)
[35] = target: HIV-1 Env of ZM249.1 (HIV-1)
[36] = target: HIV-1 Env of CNE3 (HIV-1)
[37] = target: HIV-1 Env of C1080.c3 (HIV-1)
[38] = target: HIV-1 Env of Q168.a2 (HIV-1)
[39] = target: HIV-1 Env of KER2018.11 (HIV-1)
[40] = target: HIV-1 Env of KER2008.12 (HIV-1)
[41] = target: HIV-1 Env of TH976.17 (HIV-1)
[42] = target: HIV-1 Env of ZM197.7 (HIV-1)
[43] = target: HIV-1 Env of THRO.18 (HIV-1)
[44] = target: HIV-1 Env of TRJO.58 (HIV-1)
[45] = target: HIV-1 Env of 6535.3 (HIV-1)
[46] = target: HIV-1 Env of CAP210.E8 (HIV-1)
[47] = target: HIV-1 Env of ZM109.4 (HIV-1)
[48] = target: HIV-1 Env of CAP256.PI (HIV-1)
[49] = target: HIV-1 Env of Q769.d22 (HIV-1)

With CAP256-VRC26.17 (antibody) the IC50 [1] was 18.7 µg/mL, the IC50 [2] was 0.003 µg/mL and the IC50 [3] was greater than 50 µg/mL. It also gave an IC50 [4] greater than 50 µg/mL, an IC50 [5] of 0.14 µg/mL and an IC50 [6] greater than 50 µg/mL. The IC50 [7] was 35.4 µg/mL, the IC50 [8] was 0.005 µg/mL and the IC50 [9] was greater than 50 µg/mL. The IC50 [10] was 6.42 µg/mL, the IC50 [11] was greater than 50 µg/mL and the IC50 [12] was greater than 50 µg/mL. For the same substance, the IC50 [13] was greater than 50 µg/mL, the IC50 [14] was greater than 50 µg/mL and the IC50 [15] was greater than 50 µg/mL. For the same substance, the IC50 [16] was greater than 50 µg/mL, the IC50 [17] was greater than 50 µg/mL and the IC50 [18] was greater than 50 µg/mL. It also gave an IC50 [19] greater than 50 µg/mL, an IC50 [20] greater than 50 µg/mL and an IC50 [21] greater than 50 µg/mL. The IC50 [22] was 0.51 µg/mL, the IC50 [23] was greater than 50 µg/mL and the IC50 [24] was 0.006 µg/mL. The IC50 [25] was greater than 50 µg/mL, the IC50 [26] was 0.011 µg/mL and the IC50 [27] was greater than 50 µg/mL. It also gave an IC50 [28] greater than 50 µg/mL, an IC50 [29] greater than 50 µg/mL and an IC50 [30] greater than 50 µg/mL. It also gave an IC50 [31] greater than 50 µg/mL, an IC50 [32] of 0.4 µg/mL and an IC50 [33] of 0.076 µg/mL. For the same substance, the IC50 [34] was greater than 50 µg/mL, the IC50 [35] was 1.23 µg/mL and the IC50 [36] was greater than 50 µg/mL. For the same substance, the IC50 [37] was greater than 50 µg/mL, the IC50 [38] was greater than 50 µg/mL and the IC50 [39] was 0.064 µg/mL. For the same substance, the IC50 [40] was greater than 50 µg/mL, the IC50 [41] was greater than 50 µg/mL and the IC50 [42] was 2.2 µg/mL. The IC50 [43] was greater than 50 µg/mL, the IC50 [44] was greater than 50 µg/mL and the IC50 [45] was greater than 50 µg/mL. For the same substance, the IC50 [46] was 0.006 µg/mL, the IC50 [47] was greater than 50 µg/mL and the IC50 [48] was greater than 50 µg/mL. For the same substance, the IC50 [49] was greater than 50 µg/mL.
CAP256-VRC26.21 (antibody) was tested, and the IC50 [1] was greater than 50 µg/mL, the IC50 [2] was 0.002 µg/mL and the IC50 [3] was greater than 50 µg/mL. The IC50 [4] was greater than 50 µg/mL, the IC50 [5] was greater than 50 µg/mL and the IC50 [6] was greater than 50 µg/mL. It also gave an IC50 [7] greater than 50 µg/mL, an IC50 [8] of 0.003 µg/mL and an IC50 [9] greater than 50 µg/mL. It also gave an IC50 [10] greater than 50 µg/mL, an IC50 [11] greater than 50 µg/mL and an IC50 [12] greater than 50 µg/mL. It also gave an IC50 [13] greater than 50 µg/mL, an IC50 [14] greater than 50 µg/mL and an IC50 [15] greater than 50 µg/mL. For the same substance, the IC50 [16] was greater than 50 µg/mL, the IC50 [17] was greater than 50 µg/mL and the IC50 [18] was greater than 50 µg/mL. It also gave an IC50 [19] greater than 50 µg/mL, an IC50 [20] greater than 50 µg/mL and an IC50 [21] greater than 50 µg/mL. For the same substance, the IC50 [22] was 1.1 µg/mL, the IC50 [23] was greater than 50 µg/mL and the IC50 [24] was 26.5 µg/mL. It also gave an IC50 [25] greater than 50 µg/mL, an IC50 [26] greater than 50 µg/mL and an IC50 [27] greater than 50 µg/mL. It also gave an IC50 [28] greater than 50 µg/mL, an IC50 [29] greater than 50 µg/mL and an IC50 [30] greater than 50 µg/mL. The IC50 [31] was greater than 50 µg/mL, the IC50 [32] was greater than 50 µg/mL and the IC50 [33] was 25.4 µg/mL. For the same substance, the IC50 [34] was greater than 50 µg/mL, the IC50 [35] was greater than 50 µg/mL and the IC50 (neutralization, TZM-bl) [36] was greater than 50 µg/mL. It also gave an IC50 [37] greater than 50 µg/mL, an IC50 [38] greater than 50 µg/mL and an IC50 [39] of 0.06 µg/mL. The IC50 [40] was greater than 50 µg/mL, the IC50 (neutralization, TZM-bl) [41] was greater than 50 µg/mL and the IC50 [42] was greater than 50 µg/mL. It also gave an IC50 [43] greater than 50 µg/mL, an IC50 [44] greater than 50 µg/mL and an IC50 [45] greater than 50 µg/mL. The IC50 [46] was 0.005 µg/mL, the IC50 [47] was greater than 50 µg/mL and the IC50 [48] was greater than 50 µg/mL. For the same substance, the IC50 [49] was greater than 50 µg/mL.
